Measurements as given in article PMC3118794.

How the values were obtained:
[1] = molecular target: actin of “ghost” muscle fibers (rabbit (endogenous in psoas muscle fibers)) (UniProt P68135); experiment: reconstitution into ghost muscle fibers, washes, SDS-PAGE; 20 µM labeled Tm added to ghost fibers in RB buffer for 15 hours at 4°C, then 20 µM troponin complex and 20 µM S1; unbound proteins removed by repeated washes with rigor buffer; 12% SDS gel quantified; conditions: scale: actin per S1
[2] = molecular target: “ghost” fiber reconstituted with labeled Tm (rabbit (endogenous in psoas muscle fibers) | not stated) (UniProt P68135); experiment: as above; conditions: scale: actin per TnI

Chain of myosin subfragment-1 (domain or fragment) (Q28641 whole entry, the tested form may be a part): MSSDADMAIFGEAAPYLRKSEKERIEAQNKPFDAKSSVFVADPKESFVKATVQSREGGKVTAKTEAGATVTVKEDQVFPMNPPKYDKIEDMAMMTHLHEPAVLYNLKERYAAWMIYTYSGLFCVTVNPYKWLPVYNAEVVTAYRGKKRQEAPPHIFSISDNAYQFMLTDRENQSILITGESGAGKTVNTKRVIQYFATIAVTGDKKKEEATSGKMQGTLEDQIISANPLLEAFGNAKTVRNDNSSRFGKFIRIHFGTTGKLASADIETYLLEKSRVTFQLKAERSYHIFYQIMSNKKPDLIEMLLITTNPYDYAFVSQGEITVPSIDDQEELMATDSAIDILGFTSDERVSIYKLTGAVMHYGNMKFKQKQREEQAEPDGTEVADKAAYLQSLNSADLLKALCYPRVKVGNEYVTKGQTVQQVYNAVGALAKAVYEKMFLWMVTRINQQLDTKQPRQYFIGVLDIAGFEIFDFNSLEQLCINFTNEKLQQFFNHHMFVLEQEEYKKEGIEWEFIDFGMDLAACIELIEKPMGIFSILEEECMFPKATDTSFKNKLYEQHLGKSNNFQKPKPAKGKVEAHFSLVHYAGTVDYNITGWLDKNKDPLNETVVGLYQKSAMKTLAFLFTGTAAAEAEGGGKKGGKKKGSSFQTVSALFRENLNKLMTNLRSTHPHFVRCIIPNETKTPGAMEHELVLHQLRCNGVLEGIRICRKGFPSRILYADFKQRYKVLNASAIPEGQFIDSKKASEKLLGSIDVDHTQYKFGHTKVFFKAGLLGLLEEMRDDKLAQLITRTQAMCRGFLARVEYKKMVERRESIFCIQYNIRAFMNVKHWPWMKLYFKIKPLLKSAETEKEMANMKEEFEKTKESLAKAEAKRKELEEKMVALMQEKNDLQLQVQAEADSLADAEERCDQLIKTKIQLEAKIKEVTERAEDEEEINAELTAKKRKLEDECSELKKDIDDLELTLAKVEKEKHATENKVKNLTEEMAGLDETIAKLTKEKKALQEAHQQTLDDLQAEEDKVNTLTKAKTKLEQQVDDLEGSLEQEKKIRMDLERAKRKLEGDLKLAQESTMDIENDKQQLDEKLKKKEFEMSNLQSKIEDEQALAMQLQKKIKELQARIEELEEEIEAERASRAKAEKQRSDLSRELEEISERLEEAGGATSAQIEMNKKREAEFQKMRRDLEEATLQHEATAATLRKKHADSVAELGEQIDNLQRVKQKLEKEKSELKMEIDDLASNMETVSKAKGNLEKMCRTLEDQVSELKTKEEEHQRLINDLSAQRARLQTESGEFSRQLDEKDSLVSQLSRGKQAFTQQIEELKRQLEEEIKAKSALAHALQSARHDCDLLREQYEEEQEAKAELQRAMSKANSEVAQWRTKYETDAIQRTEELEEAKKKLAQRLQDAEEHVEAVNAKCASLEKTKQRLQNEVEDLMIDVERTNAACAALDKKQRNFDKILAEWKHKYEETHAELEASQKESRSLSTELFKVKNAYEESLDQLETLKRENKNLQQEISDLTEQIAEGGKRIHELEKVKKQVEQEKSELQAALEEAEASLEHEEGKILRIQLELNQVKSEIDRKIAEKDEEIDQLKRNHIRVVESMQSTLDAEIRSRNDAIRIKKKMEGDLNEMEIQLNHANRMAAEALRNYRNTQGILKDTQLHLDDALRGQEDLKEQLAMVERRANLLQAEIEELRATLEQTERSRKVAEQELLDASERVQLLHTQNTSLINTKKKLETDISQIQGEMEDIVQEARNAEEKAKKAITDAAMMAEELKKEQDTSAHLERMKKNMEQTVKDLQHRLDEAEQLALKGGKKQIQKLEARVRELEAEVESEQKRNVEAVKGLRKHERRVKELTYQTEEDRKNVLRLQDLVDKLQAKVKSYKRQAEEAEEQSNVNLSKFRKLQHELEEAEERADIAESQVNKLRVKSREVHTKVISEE
Chain of skeletal troponin complex (P02586 whole entry): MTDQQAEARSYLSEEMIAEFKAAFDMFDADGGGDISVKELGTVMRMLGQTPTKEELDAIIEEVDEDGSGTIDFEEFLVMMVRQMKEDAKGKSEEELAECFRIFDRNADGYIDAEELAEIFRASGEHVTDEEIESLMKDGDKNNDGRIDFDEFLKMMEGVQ
Chain of skeletal troponin complex (P02643 whole entry): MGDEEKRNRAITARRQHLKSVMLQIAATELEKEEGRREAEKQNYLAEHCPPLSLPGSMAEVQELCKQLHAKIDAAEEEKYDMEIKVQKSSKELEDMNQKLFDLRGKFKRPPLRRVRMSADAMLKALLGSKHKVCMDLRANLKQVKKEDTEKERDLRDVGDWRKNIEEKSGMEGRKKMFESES
Chain of skeletal troponin complex (P02641 whole entry): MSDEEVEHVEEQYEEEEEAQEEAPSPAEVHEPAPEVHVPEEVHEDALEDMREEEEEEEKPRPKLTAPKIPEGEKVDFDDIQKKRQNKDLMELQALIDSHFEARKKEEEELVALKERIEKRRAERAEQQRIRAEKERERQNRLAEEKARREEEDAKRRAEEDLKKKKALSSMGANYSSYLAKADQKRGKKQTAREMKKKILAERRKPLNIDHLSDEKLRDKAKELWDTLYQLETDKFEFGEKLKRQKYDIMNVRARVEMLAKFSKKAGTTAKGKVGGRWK

| Substance | ratio of the S1:actin intensity in reconstituted ghost fibers (SDS-PAGE) [1] | ratio of TnI:actin in the reconstituted fiber (SDS-PAGE) [2] |
| --- | --- | --- |
| myosin subfragment-1 (domain or fragment) | 1 |  |
| skeletal troponin complex (from UniProt P02586 1-160; P02643 1-182; P02641 1-279) |  | 4.5 |
